{"source": "patent US6869925", "about": "(Amgen, dated 2005)", "key": {"[1]": {"biological_target": "SLPI binding sites on HuT78 cells (human T cell line) (human)", "assay": "competition with 125I-SLPI, intact HuT78 cells, competitor at 0 nM"}, "[2]": {"biological_target": "SLPI binding sites on U937 cells (human monocyte cell line; intact cells, PMA-induced cells or plasma membranes) (human)", "assay": "125I-SLPI saturation binding, intact U937 cells, *SLPI at 10,240 pM"}, "[3]": {"biological_target": "SLPI binding sites on U937 cells (human monocyte cell line; intact cells, PMA-induced cells or plasma membranes) (human)", "assay": "125I-SLPI saturation binding, U937 cells minus PMA, *SLPI at 80 pM"}, "[4]": {"biological_target": "SLPI binding sites on U937 cells (human monocyte cell line; intact cells, PMA-induced cells or plasma membranes) (human)", "assay": "125I-SLPI saturation binding, intact U937 cells, *SLPI at 5120 pM"}, "[5]": {"biological_target": "SLPI binding sites on U937 cells (human monocyte cell line; intact cells, PMA-induced cells or plasma membranes) (human)", "assay": "125I-SLPI saturation binding, intact U937 cells, *SLPI at 320 pM"}, "[6]": {"biological_target": "SLPI binding sites on U937 cells (human monocyte cell line; intact cells, PMA-induced cells or plasma membranes) (human)", "assay": "competition with 125I-SLPI, U937 plasma membranes, competitor at 8.20 nM"}, "[7]": {"biological_target": "SLPI binding sites on U937 cells (human monocyte cell line; intact cells, PMA-induced cells or plasma membranes) (human)", "assay": "competition with 125I-SLPI, intact U937 cells, competitor at 2.6 nM"}, "[8]": {"biological_target": "SLPI binding sites on HuT78 cells (human T cell line) (human)", "assay": "competition with 125I-SLPI, intact HuT78 cells, cold SLPI at 270 nM"}, "[9]": {"biological_target": "SLPI binding sites on U937 cells (human monocyte cell line; intact cells, PMA-induced cells or plasma membranes) (human)", "assay": "competition with 125I-SLPI, intact U937 cells, cold SLPI at 0.80 nM"}, "[10]": {"biological_target": "SLPI binding sites on HuT78 cells (human T cell line) (human)", "assay": "competition with 125I-SLPI, intact HuT78 cells, Kd by Cheng-Prusoff"}, "[11]": {"biological_target": "SLPI binding sites on U937 cells (human monocyte cell line; intact cells, PMA-induced cells or plasma membranes) (human)", "assay": "125I-SLPI saturation binding, intact U937 cells, *SLPI at 1280 pM"}, "[12]": {"biological_target": "SLPI binding sites on U937 cells (human monocyte cell line; intact cells, PMA-induced cells or plasma membranes) (human)", "assay": "competition with 125I-SLPI, intact U937 cells, competitor at 26 nM"}, "[13]": {"biological_target": "SLPI binding sites on U937 cells (human monocyte cell line; intact cells, PMA-induced cells or plasma membranes) (human)", "assay": "competition with 125I-SLPI, intact U937 cells, competitor at 0 nM"}, "[14]": {"biological_target": "SLPI binding sites on U937 cells (human monocyte cell line; intact cells, PMA-induced cells or plasma membranes) (human)", "assay": "125I-SLPI saturation binding, intact U937 cells, *SLPI at 2560 pM"}, "[15]": {"biological_target": "SLPI binding sites on HuT78 cells (human T cell line) (human)", "assay": "competition with 125I-SLPI, intact HuT78 cells, cold SLPI at 2.6 nM"}, "[16]": {"biological_target": "SLPI binding sites on U937 cells (human monocyte cell line; intact cells, PMA-induced cells or plasma membranes) (human)", "assay": "125I-SLPI saturation binding, U937 cells plus PMA, *SLPI at 320 pM"}, "[17]": {"biological_target": "SLPI binding sites on HuT78 cells (human T cell line) (human)", "assay": "competition with 125I-SLPI, intact HuT78 cells, cold SLPI at 0.024 nM"}, "[18]": {"biological_target": "SLPI binding sites on U937 cells (human monocyte cell line; intact cells, PMA-induced cells or plasma membranes) (human)", "assay": "competition with 125I-SLPI, intact U937 cells, cold SLPI at 2.6 nM"}, "[19]": {"biological_target": "SLPI binding sites on HuT78 cells (human T cell line) (human)", "assay": "competition with 125I-SLPI, intact HuT78 cells, cold SLPI at 0.00 nM"}, "[20]": {"biological_target": "SLPI binding sites on U937 cells (human monocyte cell line; intact cells, PMA-induced cells or plasma membranes) (human)", "assay": "Scatchard plot of 125I-SLPI saturation binding, PMA-induced U937 cells"}, "[21]": {"biological_target": "SLPI binding sites on U937 cells (human monocyte cell line; intact cells, PMA-induced cells or plasma membranes) (human)", "assay": "competition with 125I-SLPI, intact U937 cells, Kd by Cheng-Prusoff"}, "[22]": {"biological_target": "SLPI binding sites on U937 cells (human monocyte cell line; intact cells, PMA-induced cells or plasma membranes) (human)", "assay": "competition with 125I-SLPI, U937 plasma membranes, competitor at 0 nM"}, "[23]": {"biological_target": "SLPI binding sites on U937 cells (human monocyte cell line; intact cells, PMA-induced cells or plasma membranes) (human)", "assay": "competition with 125I-SLPI, U937 plasma membranes, competitor at 2750 nM"}, "[24]": {"biological_target": "SLPI binding sites on HuT78 cells (human T cell line) (human)", "assay": "competition with 125I-SLPI, intact HuT78 cells, competitor at 2.6 nM"}, "[25]": {"biological_target": "SLPI binding sites on U937 cells (human monocyte cell line; intact cells, PMA-induced cells or plasma membranes) (human)", "assay": "competition with 125I-SLPI, U937 plasma membranes, competitor at 0.800 nM"}, "[26]": {"biological_target": "SLPI binding sites on HuT78 cells (human T cell line) (human)", "assay": "125I-SLPI saturation binding, intact HuT78 cells, *SLPI at 5120 pM"}}}
{"substance": "serine leukocyte protease inhibitor (SLPI) (from UniProt P03973 26-132)", "values": [{"measurement": "% *SLPI BOUND", "setting": "[1]", "value": 100, "unit": "%"}, {"measurement": "bound *SLPI (pM)", "setting": "[2]", "value": 463, "unit": "pM"}, {"measurement": "bound per free", "setting": "[2]", "value": 0.047}, {"measurement": "sites bound per cell (sites per cell)", "setting": "[2]", "value": 27900}, {"measurement": "specific cpm", "setting": "[2]", "value": 18500, "unit": "cpm"}, {"measurement": "bound *SLPI (pM)", "setting": "[3]", "value": 37, "unit": "pM"}, {"measurement": "bound per free", "setting": "[3]", "value": 0.86}, {"measurement": "sites bound per cell (sites per cell)", "setting": "[3]", "value": 2230}, {"measurement": "specific cpm", "setting": "[3]", "value": 400, "unit": "cpm"}, {"measurement": "bound *SLPI (pM)", "setting": "[4]", "value": 379, "unit": "pM"}, {"measurement": "bound per free", "setting": "[4]", "value": 0.08}, {"measurement": "sites bound per cell (sites per cell)", "setting": "[4]", "value": 22800}, {"measurement": "specific cpm", "setting": "[4]", "value": 15100, "unit": "cpm"}, {"measurement": "bound *SLPI (pM)", "setting": "[5]", "value": 65.7, "unit": "pM"}, {"measurement": "bound per free", "setting": "[5]", "value": 0.258}, {"measurement": "sites bound per cell (sites per cell)", "setting": "[5]", "value": 3960}, {"measurement": "specific cpm", "setting": "[5]", "value": 2620, "unit": "cpm"}, {"measurement": "CPM *SLPI BOUND", "setting": "[6]", "value": 5710, "unit": "cpm"}, {"measurement": "% *SLPI BOUND", "setting": "[7]", "value": 46, "unit": "%"}, {"measurement": "% *SLPI BOUND", "setting": "[8]", "value": 0, "unit": "%"}, {"measurement": "% *SLPI BOUND", "setting": "[9]", "value": 77, "unit": "%"}, {"measurement": "Kd", "setting": "[10]", "value": 2, "unit": "nM"}, {"measurement": "bound *SLPI (pM)", "setting": "[11]", "value": 217, "unit": "pM"}, {"measurement": "bound per free", "setting": "[11]", "value": 0.204}, {"measurement": "sites bound per cell (sites per cell)", "setting": "[11]", "value": 13100}, {"measurement": "specific cpm", "setting": "[11]", "value": 8650, "unit": "cpm"}, {"measurement": "% *SLPI BOUND", "setting": "[12]", "value": 11, "unit": "%"}, {"measurement": "% *SLPI BOUND", "setting": "[13]", "value": 109, "unit": "%"}, {"measurement": "bound *SLPI (pM)", "setting": "[14]", "value": 339, "unit": "pM"}, {"measurement": "bound per free", "setting": "[14]", "value": 0.153}, {"measurement": "sites bound per cell (sites per cell)", "setting": "[14]", "value": 20400}, {"measurement": "specific cpm", "setting": "[14]", "value": 13500, "unit": "cpm"}, {"measurement": "% *SLPI BOUND", "setting": "[15]", "value": 56, "unit": "%"}, {"measurement": "bound pM", "setting": "[16]", "value": 65, "unit": "pM"}, {"measurement": "bound per free", "setting": "[16]", "value": 0.255}, {"measurement": "sites bound per cell (sites per cell)", "setting": "[16]", "value": 3920}, {"measurement": "specific cpm", "setting": "[16]", "value": 698, "unit": "cpm"}, {"measurement": "% *SLPI BOUND", "setting": "[17]", "value": 88, "unit": "%"}, {"measurement": "% *SLPI BOUND", "setting": "[18]", "value": 55, "unit": "%"}, {"measurement": "% *SLPI BOUND", "setting": "[19]", "value": 100, "unit": "%"}, {"measurement": "Kd", "setting": "[20]", "value": 1, "unit": "nM"}, {"measurement": "Kd", "setting": "[21]", "value": 2, "unit": "nM"}, {"measurement": "CPM *SLPI BOUND", "setting": "[22]", "value": 18700, "unit": "cpm"}, {"measurement": "CPM *SLPI BOUND", "setting": "[23]", "value": 1680, "unit": "cpm"}, {"measurement": "% *SLPI BOUND", "setting": "[24]", "value": 76, "unit": "%"}, {"measurement": "CPM *SLPI BOUND", "setting": "[25]", "value": 14800, "unit": "cpm"}, {"measurement": "bound pM", "setting": "[26]", "value": 13.5, "unit": "pM"}, {"measurement": "bound per free", "setting": "[26]", "value": 0.0026}, {"measurement": "sites bound per cell (sites per cell)", "setting": "[26]", "value": 813}, {"measurement": "specific cpm", "setting": "[26]", "value": 538, "unit": "cpm"}]}
